Source: patent publication US8173600 (CHIESI FARMACEUTICI S P A, dated 2012)
Numbered stars: 1 amine (or outer) side, 2 acyl side, 3 side chain; on linkers, the order of the positions; unused ones are H or OH. Square brackets hold non-standard residues; d marks the D form. * marks the point of attachment. 2,6‑difluorophenyl ester = C-terminal 2,6-difluorophenyl ester (dfp), Fc1cccc(F)c1O*; Asp(OMe) = aspartyl methyl ester, COC(=O)C[C@H](N[*:1])C(=O)[*:2]; Quinaldoyl = O=C(c1ccc2ccccc2n1)*

Target: T1, human recombinant caspase-2 (human, UniProt P42575 170-452, limits assumed)
T1 sequence (looked up): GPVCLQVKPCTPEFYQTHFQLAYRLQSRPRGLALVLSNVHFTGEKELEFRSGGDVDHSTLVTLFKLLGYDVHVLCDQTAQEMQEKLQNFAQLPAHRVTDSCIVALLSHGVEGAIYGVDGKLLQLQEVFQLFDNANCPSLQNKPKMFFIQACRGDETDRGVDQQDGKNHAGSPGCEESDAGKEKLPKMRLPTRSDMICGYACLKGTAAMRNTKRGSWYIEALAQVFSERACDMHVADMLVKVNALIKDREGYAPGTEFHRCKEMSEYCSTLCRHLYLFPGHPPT
Assay: cell-based or functional assay

B1: 2-Quinolinylcarbonyl-L-Valinyl-L-Aspartyl (methyl ester)-L-Valinyl-L-Alanyl-L-Aspartyl (methyl ester) 2,6-difluorophenyl ester (peptide)
peptide: Quinaldoyl-V[Asp(OMe)]VA[Asp(OMe)]-{2,6‑difluorophenyl ester}
SMILES: COC(=O)C[C@H](NC(=O)[C@@H](NC(=O)c1ccc2ccccc2n1)C(C)C)C(=O)N[C@H](C(=O)N[C@@H](C)C(=O)N[C@@H](CC(=O)OC)C(=O)Oc1c(F)cccc1F)C(C)C
IC50 (in vitro inhibition of human recombinant caspase-2): 80 nM
